According to US20230203172A1:

Molecular target: human IL-4R alpha on cells (TF-1 cells; human peripheral blood mononuclear cells) (human) (UniProt P24394)
Assay: cell-based or functional assay

Dupilumab (antibody) gave an IC50 (ng/ml), inhibition of IL-4-induced TF-1 cell proliferation of 138 ng/mL.
